Assay results as given in article PMC9944321.

Key:
[1] = biological target: deuterated green fluorescent protein [GFP: P42212]; experiment: small-angle neutron scattering (SANS); free protein in solution, about 5 mg/mL in Tris-buffer, h-GFP in D2O and d-GFP in H2O, 2-mm quartz cells, ambient conditions; Rg, P(r) and DAMMIF ab initio reconstruction
[2] = biological target: hydrogenated green fluorescent protein [GFP: P42212]; experiment: as above

Substance	stoichiometry N [1]	stoichiometry N [2]
deuterated green fluorescent protein (from UniProt P42212 2-238) (natural protein)	2	–
hydrogenated green fluorescent protein (from UniProt P42212 2-238) (natural protein)	–	2
